The text below walks through data of patent US20020132769A1.

This experiment concerns the target fiber on the vector capsid of the adenoviral vector Av3GFP (adenovirus, serotype not stated). The experiment is described as follows: cell-based or functional assay.

“trimerized sCAR (sCAR followed by a glycine/serine linker, the isoleucine variant GCN4 trimerization domain, and a 6 His Tag; plasmid pGStriCARb) (receptor)”: the % GFP Positive HepG2 cells, Av3GFP + 5 µg trimeric sCAR (Av3GFP alone: 98) is 43%; the % GFP Positive HepG2 cells, Av3GFP + 10 µg trimeric sCAR (Av3GFP alone: 98) was determined as 32%; the % GFP Positive HepG2 cells, Av3GFP + 20 µg trimeric sCAR (Av3GFP alone: 98) was found to be 32%.
